Assay results published in article PMC2376138 (2002).
Values belong to the binder of their own block, whether it stands above or below them.

Columns and labels:
[1] = molecular target: T1, SC142-reactive antigen (human (endogenous in SNU16), highly glycosylated (O-glycans)); experiment: SPR; apparent; immobilised mAb, 1:1 Langmuir global fit
[2] = molecular target: T1, SC142-reactive antigen; experiment: SPR; apparent; immobilised scFv, 1:1 Langmuir global fit

koff [1]: 0.000825 s⁻¹
B1: SC142 monoclonal antibody (antibody, V domains shown)
VH: QVKLQQSGTEVVKPGASVKLSCKASGYIFTSYDIDWVRQTPEQGLEWIGWIFPGEGSTEYNEKFKGRATLSVDKSSSTAYMELTRLTSEDSAVYFCARGDYYRRYFDLWGQGTTVTVSS
VL: DIELTQSPTIMSASPGERVTMTCSASSSIRYIYWYQQKPGSSPRLLIYDTSNVAPGVPFRFSGSGSGTSYSLTINRMEAEDAATYYCLEWSGYPYTFGGGTKLELK

koff [2]: 0.000776 s⁻¹
B2: recombinant SC142 scFv (scFv, V domains shown)
VH: B1 VH
VL: B1 VL
